Biological target: the molecule itself
Assay: cross-linking; 0.05 mM αB-crystallin with 0.3 mM glutaraldehyde in PBS (20 mM phosphate buffer, 150 mM NaCl, pH 7.2), 20 °C, 30 h; dialysed against PBS; examined by SDS-PAGE

B1: recombinant human αB-crystallin (natural protein, UniProt P02511 1-175, looked up)
chain: MDIAIHHPWIRRPFFPFHSPSRLFDQFFGEHLLESDLFPTSTSLSPFYLRPPSFLRAPSWFDTGLSEMRLEKDRFSVNLDVKHFSPEELKVKVLGDVIEVHGKHEERQDEHGFISREFHRKYRIPADVDPLTITSSLSSDGVLTVNGPRKQVSGPERTIPITREEKPAVTAAPKK
notes: also called native αB-crystallin; source: E. coli BL21(DE3), purified (ammonium sulfate fractionation, Q-Sepharose anion exchange)
Q: Does B1 bind?
A: binds
